# Source: US20260345809 (published 2026)
# Columns and labels:
# GPC3 [1] = target: T1, GPC3 (human, UniProt P51654); assay: FACS, HepG2 cells
# GPC3 [2] = target: T1, GPC3; assay: FACS, GPC3-CHO-K1 cells
# GPC3 [3] = target: T1, GPC3; assay: FACS, Huh-7 cells
# GPC3 [4] = target: T1, GPC3; assay: FACS, HepG2 cells; remark: listed apart in the source
Binder,EC50 (GPC3 [1]) [µg/mL],EC50 (GPC3 [2]) [nM],EC50 (GPC3 [3]) [nM],EC50 (GPC3 [4]) [nM]
"GC33 (antibody, V domains shown) VH: QVQLVQSGAEVKKPGASVKVSCKASGYTFTDYEMHWVRQAPGQGLEWMGALDPKTGDTAYSQKFKGRVTLTADKSTSTAYMELSSLTSEDTAVYYCTRFYSYTYWGQGTLVTVSS VL: DVVMTQSPLSLPVTPGEPASISCRSSQSLVHSNRNTYLHWYLQKPGQSPQLLIYKVSNRFSGVPDRFSGSGSGTDFTLKISRVEAEDVGVYYCSQNTHVPPTFGQGTKLEIKR",0.269,0.956,0.953,0.745
"Y035 (antibody, V domains shown) VH: EVQLVQSGAEVKKPGASVKVSCKASGYTHSDYEMHWVRQAPGQGLEWMGAIHPGSGDTAYNQRFKGRVTITADKSTSTAYMELSSLRSEDTAVYYCARFYSYAYWGQGTLVTVSA VL: DIVMTQTPLSLPVTPGEPASISCRSSQSLVHSNGNTYLQWYLQWYLQKPGQSPQLLIYKVSNRFSGVPDRFSGSGSGTDFTLKISRVEAEDVGVYYCSQSIYVPYTFGQGTKLEIKR",–,1.46,1.18,1.25

# The remaining lines, values ahead:
EC50 (GPC3 [1]) [µg/mL],EC50 (GPC3 [2]) [nM],EC50 (GPC3 [3]) [nM],EC50 (GPC3 [4]) [nM],Binder
0.143,–,–,–,"GC33-ZLA (antibody, V domains shown, ADC, ZLA conjugate of GC33) VH: QVQLVQSGAEVKKPGASVKVSCKASGYTFTDYEMHWVRQAPGQGLEWMGALDPKTGDTAYSQKFKGRVTLTADKSTSTAYMELSSLTSEDTAVYYCTRFYSYTYWGQGTLVTVSS VL: DVVMTQSPLSLPVTPGEPASISCRSSQSLVHSNRNTYLHWYLQKPGQSPQLLIYKVSNRFSGVPDRFSGSGSGTDFTLKISRVEAEDVGVYYCSQNTHVPPTFGQGTKLEIKR"
0.112,–,–,–,"GC33-L4-D4 (antibody, V domains shown, ADC, MC-MMAF conjugate of GC33) VH: QVQLVQSGAEVKKPGASVKVSCKASGYTFTDYEMHWVRQAPGQGLEWMGALDPKTGDTAYSQKFKGRVTLTADKSTSTAYMELSSLTSEDTAVYYCTRFYSYTYWGQGTLVTVSS VL: DVVMTQSPLSLPVTPGEPASISCRSSQSLVHSNRNTYLHWYLQKPGQSPQLLIYKVSNRFSGVPDRFSGSGSGTDFTLKISRVEAEDVGVYYCSQNTHVPPTFGQGTKLEIKR"
